Results from patent US20230234987A1.

Assays:
[1] = molecular target: His-tagged PP1 (protein phosphatase 1, catalytic subunit); assay: plate binding curve: biotinylated peptide on His-PP1 on nickel wells, streptavidin-Alexa Fluor 488
[2] = molecular target: His-tagged PP1 (protein phosphatase 1, catalytic subunit); assay: competition plate assay: MYPT1 1-299 binding to His-PP1 with increasing PIP250; competitor MYPT1 1-299
[3] = molecular target: His-tagged PP1 (protein phosphatase 1, catalytic subunit); assay: plate binding curve: MYPT1 1-299 on His-PP1 on nickel wells, streptavidin-Alexa Fluor 488
[4] = molecular target: His-tagged PP1 (protein phosphatase 1, catalytic subunit); assay: as above; remark: listed apart in the source

Row | Substance | Kd [1] [µM] | Ki [2] [µM] | Kd [3] [µM] | Kd [4] [µM]
1 | PIP250 (H-rrfkvktkkrk-NH2) (peptide) | 610 | 155 |  | 
2 | PIP251 (H-rrakvktkkrk-NH2) (peptide) | 1280 |  |  | 
3 | PIP252 (H-rrfkaktkkrk-NH2) (peptide) | 724 |  |  | 
4 | amino acids 1-299 of MYPT1 |  |  | 0.049 | 0.05
